Experimental data from publication PMC10448054.
pKd: −log10 of the molar value.

Target: N-protein of the wild-type Cne PRP8 S0 split mini-intein with C1A, maltose-binding protein fused to N-intein (MI^A N) (Cryptococcus neoformans)
Experiment: SPR; Biacore T100; N-proteins (WTNa, ENa) immobilised on a CM5 chip; C-terminal fusion proteins flowed at different concentrations in 10 mM HEPES, 150 mM NaCl, 1 mM EDTA, pH 7.4; KD = kd/ka

In the case of “C-protein of the wild-type Cne PRP8 S0 split mini-intein with N185A, C-intein fused to thioredoxin (I^A CT) (domain or fragment)”, the Ka was 608000 M⁻¹, the pKd was 5.78 and the koff was 0.0082 s⁻¹. The kon was 4990 M⁻¹ s⁻¹.
